Reference: patent publication US20080044360A1 (COLLAGEN MEDICAL, published 2008)
Bridge positions count the residues as written; N and C are the ends. Square brackets hold non-standard residues; d marks the D form. Ends that are not written are not given here.

B1: SEQ ID NO 169 (peptide)
peptide: QWTCSG[dD]EYTWHCNYE
modifications: disulfide 4-13 (inferred); not fully specified (N-terminus); printed as QWTCSGdEYTWHCNYE
notes: cyclic, disulfide

What follows are binders tested against T1, human collagen type I, acid soluble, extracted from placenta (Sigma C7774) (human, UniProt P02452 162-1218; P08123 80-1119) (assay: dried collagen assay).
T1 construct: tissue extract, gelled and dried in wells; also called dried human collagen; h-Collagen
T1 sequence (P02452 162-1218 limits assumed, chain 1 of 2): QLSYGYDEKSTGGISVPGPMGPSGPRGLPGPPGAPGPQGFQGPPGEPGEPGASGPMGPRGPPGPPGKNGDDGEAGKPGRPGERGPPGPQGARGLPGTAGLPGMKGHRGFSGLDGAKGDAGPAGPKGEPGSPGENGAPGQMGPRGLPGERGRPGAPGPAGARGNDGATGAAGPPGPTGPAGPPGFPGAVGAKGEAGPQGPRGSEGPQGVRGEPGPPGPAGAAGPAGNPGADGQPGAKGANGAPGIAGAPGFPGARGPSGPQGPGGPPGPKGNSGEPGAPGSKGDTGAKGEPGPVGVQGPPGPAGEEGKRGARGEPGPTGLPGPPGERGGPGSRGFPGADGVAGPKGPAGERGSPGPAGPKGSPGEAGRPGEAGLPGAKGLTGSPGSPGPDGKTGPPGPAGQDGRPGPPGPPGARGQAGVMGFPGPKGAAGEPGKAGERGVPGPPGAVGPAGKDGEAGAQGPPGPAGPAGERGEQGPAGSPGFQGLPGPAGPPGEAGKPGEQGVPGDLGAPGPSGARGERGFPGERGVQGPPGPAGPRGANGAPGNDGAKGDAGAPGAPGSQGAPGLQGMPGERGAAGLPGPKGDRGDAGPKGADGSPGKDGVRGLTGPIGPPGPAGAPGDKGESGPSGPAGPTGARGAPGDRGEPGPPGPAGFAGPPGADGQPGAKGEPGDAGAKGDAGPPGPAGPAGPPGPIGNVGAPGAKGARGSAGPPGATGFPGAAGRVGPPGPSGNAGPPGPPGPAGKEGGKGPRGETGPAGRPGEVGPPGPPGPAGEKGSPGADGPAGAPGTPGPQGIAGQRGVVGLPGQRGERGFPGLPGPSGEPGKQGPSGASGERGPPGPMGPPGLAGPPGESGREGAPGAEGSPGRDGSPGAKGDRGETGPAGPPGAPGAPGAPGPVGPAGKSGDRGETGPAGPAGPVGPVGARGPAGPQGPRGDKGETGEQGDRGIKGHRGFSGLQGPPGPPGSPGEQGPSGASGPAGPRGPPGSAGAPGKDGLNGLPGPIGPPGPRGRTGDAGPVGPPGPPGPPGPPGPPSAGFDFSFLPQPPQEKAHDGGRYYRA
T1 sequence (P08123 80-1119 limits assumed, chain 2 of 2): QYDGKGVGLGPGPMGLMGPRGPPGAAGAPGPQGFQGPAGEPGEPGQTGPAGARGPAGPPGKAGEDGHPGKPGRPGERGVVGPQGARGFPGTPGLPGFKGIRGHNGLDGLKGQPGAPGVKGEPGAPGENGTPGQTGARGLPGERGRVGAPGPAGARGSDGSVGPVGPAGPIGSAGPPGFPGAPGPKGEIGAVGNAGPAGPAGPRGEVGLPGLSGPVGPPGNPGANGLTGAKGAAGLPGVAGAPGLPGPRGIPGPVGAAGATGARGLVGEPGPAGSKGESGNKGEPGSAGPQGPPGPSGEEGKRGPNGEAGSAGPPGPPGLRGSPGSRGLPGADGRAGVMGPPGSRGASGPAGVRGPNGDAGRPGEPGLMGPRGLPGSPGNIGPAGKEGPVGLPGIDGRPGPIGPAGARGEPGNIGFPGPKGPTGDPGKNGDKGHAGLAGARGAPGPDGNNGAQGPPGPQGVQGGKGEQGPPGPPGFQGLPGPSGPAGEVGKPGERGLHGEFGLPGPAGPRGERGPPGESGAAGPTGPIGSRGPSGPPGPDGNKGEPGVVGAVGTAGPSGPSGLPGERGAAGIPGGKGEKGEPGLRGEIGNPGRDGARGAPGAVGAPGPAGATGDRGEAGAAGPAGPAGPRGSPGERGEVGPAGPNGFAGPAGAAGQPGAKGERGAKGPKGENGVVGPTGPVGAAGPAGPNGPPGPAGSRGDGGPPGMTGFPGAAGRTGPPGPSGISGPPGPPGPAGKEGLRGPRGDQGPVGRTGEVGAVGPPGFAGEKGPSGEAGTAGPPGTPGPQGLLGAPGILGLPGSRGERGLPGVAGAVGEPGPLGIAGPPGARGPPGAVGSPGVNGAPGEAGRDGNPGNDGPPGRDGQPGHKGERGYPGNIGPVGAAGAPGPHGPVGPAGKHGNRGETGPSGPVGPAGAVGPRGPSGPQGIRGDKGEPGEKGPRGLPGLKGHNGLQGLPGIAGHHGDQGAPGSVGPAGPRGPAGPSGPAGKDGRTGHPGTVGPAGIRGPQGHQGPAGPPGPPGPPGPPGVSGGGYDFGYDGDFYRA
Method: An additional 90 μL is reserved in a HPLC glass vial as a measure of the total concentration.

Binder	% bound [%]
NWYCTGTKSWECFWK (disulfide 4-12 (inferred), cyclic, disulfide) [SEQ ID NO 7]	11
WAYCMTDPSGKYRYCQNW (disulfide 4-15 (inferred), cyclic, disulfide) [SEQ ID NO 102]	31
YPACDDQTHLWNLACWPA (disulfide 4-15 (inferred), cyclic, disulfide) [SEQ ID NO 103]	2
TWQCSGNQKWSCEWF (disulfide 4-12 (inferred), cyclic, disulfide) [SEQ ID NO 6]	20
TWNCYGVTEWHCYMI (disulfide 4-12 (inferred), cyclic, disulfide) [SEQ ID NO 9]	7
YHACYQAGCYIW (disulfide 4-9 (inferred), cyclic, disulfide) [SEQ ID NO 107]	9
WWACQKGQHDWEKCHWL (disulfide 4-14 (inferred), cyclic, disulfide) [SEQ ID NO 93]	5
WISCESSEEKISYCWRA (disulfide 4-14 (inferred), cyclic, disulfide) [SEQ ID NO 97]	13
WWTCHMTWSGQWDSCKWH (disulfide 4-15 (inferred), cyclic, disulfide) [SEQ ID NO 101]	56
WQLCSSRNDHVAYCFVS (disulfide 4-14 (inferred), cyclic, disulfide) [SEQ ID NO 96]	17
WTDCQWMDEQLWTCRWD (disulfide 4-14 (inferred), cyclic, disulfide) [SEQ ID NO 94]	21
WTDCQWMDEQIWTCRWD (disulfide 4-14 (inferred), cyclic, disulfide) [SEQ ID NO 95]	5
GWQCFGASDWHCTWV (disulfide 4-12 (inferred), cyclic, disulfide) [SEQ ID NO 8]	9
WWGCRQGTGEHWSHCMWF (disulfide 4-15 (inferred), cyclic, disulfide) [SEQ ID NO 100]	67
DWTCSGDEYTWHCNYE (disulfide 4-13 (inferred), cyclic, disulfide) [SEQ ID NO 17]	78
DWTCYGDEYTWHCNYE (disulfide 4-13 (inferred); not fully specified (C-terminus), cyclic, disulfide) [SEQ ID NO 15]	83
DWTCRGDEYTWHCNYE (disulfide 4-13 (inferred), cyclic, disulfide) [SEQ ID NO 14]	83
DWTCSGDEYTWYCNYE (disulfide 4-13 (inferred), cyclic, disulfide) [SEQ ID NO 18]	78
B1	11
DWTCSGDEYYWHCNYE (disulfide 4-13 (inferred); not fully specified (C-terminus), cyclic, disulfide) [SEQ ID NO 16]	83
DWTCSGDEYRWHCNYE (disulfide 4-13 (inferred), cyclic, disulfide) [SEQ ID NO 19]	70
GQWTCSADEYTWHCNYE (disulfide 5-14 (inferred), cyclic, disulfide) [SEQ ID NO 142]	9
